Measured values published in US20070048268A1 (ZymoGenetics, published 2007).

Molecular target: biotinylated murine IL-21 (murine, UniProt Q9ES17 18-146)
Assay: flow cytometry on MOLT-13, HuT-78, HuT-102, DEL and YT cells, 40 ng/ml to 1000 ng/ml, Streptavidin-PE
Protocol: Cells were analyzed on a FACSScan using CellQuest software (Becton Dickinson, Mountain View, Calif.).

B1: human IL-21 receptor (receptor)
chain: not shown
notes: also called zalpha11 receptor; zalpha11
B1: binds.
